To fix the notation:
B1: Jovi Hum 8 (antibody, V domains shown)
VH: QVQLVQSGAEVKKPGASVKVSCKASGYTFTGYVMHWVRQAPGQGLEWMGFINPYNDDIQSNERFRGRVTMTRDTSISTAYMELSRLRSDDTAVYYCARGAGYNFDGAYRFFDFWGQGTMVTVSS
VL: DIVMTQSPLSLPVTPGEPASISCRSSQRLVHSNGNTYLHWYLQKPGQSPRLLIYRVSNRFPGVPDRFSGSGSGTDFTLKISRVEAEDVGVYYCSQSTHVPYTFGQGTKLEIK
notes: H-AF 1 carries no back-mutation (Q3, V20, M48, R71, T73), i.e. the plain H-AF062256 graft; also called H-AF 1; H-AF1, 3aaz
B2: Jovi Hum 26 (antibody, V domains shown)
VH: QVQLVQSGAEVKKPGASVKMSCKASGYTFTGYVMHWVRQAPGQGLEWMGFINPYNDDIQSNERFRGRVTMTSDKSISTAYMELSRLRSDDTAVYYCARGAGYNFDGAYRFFDFWGQGTMVTVSS
VL: DIVMTQSPLSLPVTPGEPASISCRSSQRLVHSNGNTYLHWYLQKPGQSPRLLIYRVSNRFPGVPDRFSGSGSGTDFTLKISRVEAEDVGVYYCSQSTHVPYTFGQGTKLEIK
notes: also called H-AF 12
B3: Jovi Hum 17 (antibody, V domains shown)
VH: QVQLVQSGAEVKKPGASVKVSCKASGYTFTGYVMHWVRQAPGQGLEWMGFINPYNDDIQSNERFRGRVTMTSDTSISTAYMELSRLRSDDTAVYYCARGAGYNFDGAYRFFDFWGQGTMVTVSS
VL: DIVMTQSPLSLPVTPGEPASISCRSSQRLVHSNGNTYLHWYLQKPGQSPRLLIYRVSNRFPGVPDRFSGSGSGTDFTLKISRVEAEDVGVYYCSQSTHVPYTFGQGTKLEIK
notes: also called H-AF 3
B4: Jovi Hum 20 (antibody, V domains shown)
VH: QVQLVQSGAEVKKPGASVKVSCKASGYTFTGYVMHWVRQAPGQGLEWIGFINPYNDDIQSNERFRGRVTMTRDKSISTAYMELSRLRSDDTAVYYCARGAGYNFDGAYRFFDFWGQGTMVTVSS
VL: DIVMTQSPLSLPVTPGEPASISCRSSQRLVHSNGNTYLHWYLQKPGQSPRLLIYRVSNRFPGVPDRFSGSGSGTDFTLKISRVEAEDVGVYYCSQSTHVPYTFGQGTKLEIK
notes: also called H-AF 6
B5: Jovi Hum 19 (antibody, V domains shown)
VH: QVQLVQSGAEVKKPGASVKVSCKASGYTFTGYVMHWVRQAPGQGLEWIGFINPYNDDIQSNERFRGRVTMTRDTSISTAYMELSRLRSDDTAVYYCARGAGYNFDGAYRFFDFWGQGTMVTVSS
VL: DIVMTQSPLSLPVTPGEPASISCRSSQRLVHSNGNTYLHWYLQKPGQSPRLLIYRVSNRFPGVPDRFSGSGSGTDFTLKISRVEAEDVGVYYCSQSTHVPYTFGQGTKLEIK
notes: also called H-AF 5
B6: Jovi Hum 18 (antibody, V domains shown)
VH: QVQLVQSGAEVKKPGASVKVSCKASGYTFTGYVMHWVRQAPGQGLEWMGFINPYNDDIQSNERFRGRVTMTSDKSISTAYMELSRLRSDDTAVYYCARGAGYNFDGAYRFFDFWGQGTMVTVSS
VL: DIVMTQSPLSLPVTPGEPASISCRSSQRLVHSNGNTYLHWYLQKPGQSPRLLIYRVSNRFPGVPDRFSGSGSGTDFTLKISRVEAEDVGVYYCSQSTHVPYTFGQGTKLEIK
notes: also called H-AF 4
B7: Jovi Hum 27 (antibody, V domains shown)
VH: QVQLVQSGAEVKKPGASVKMSCKASGYTFTGYVMHWVRQAPGQGLEWIGFINPYNDDIQSNERFRGRVTMTRDTSISTAYMELSRLRSDDTAVYYCARGAGYNFDGAYRFFDFWGQGTMVTVSS
VL: DIVMTQSPLSLPVTPGEPASISCRSSQRLVHSNGNTYLHWYLQKPGQSPRLLIYRVSNRFPGVPDRFSGSGSGTDFTLKISRVEAEDVGVYYCSQSTHVPYTFGQGTKLEIK
notes: also called H-AF 13
B8: Jovi Hum 16 (antibody, V domains shown)
VH: QVQLVQSGAEVKKPGASVKVSCKASGYTFTGYVMHWVRQAPGQGLEWMGFINPYNDDIQSNERFRGRVTMTRDKSISTAYMELSRLRSDDTAVYYCARGAGYNFDGAYRFFDFWGQGTMVTVSS
VL: DIVMTQSPLSLPVTPGEPASISCRSSQRLVHSNGNTYLHWYLQKPGQSPRLLIYRVSNRFPGVPDRFSGSGSGTDFTLKISRVEAEDVGVYYCSQSTHVPYTFGQGTKLEIK
notes: also called H-AF 2

In this experiment the target is T1, TRBC2 (T-cell receptor beta constant region 2) (human, UniProt A0A5B9 1-129, limits assumed).
T1 construct: also called TCR beta-constant region 2
T1 sequence (A0A5B9 1-129 limits assumed): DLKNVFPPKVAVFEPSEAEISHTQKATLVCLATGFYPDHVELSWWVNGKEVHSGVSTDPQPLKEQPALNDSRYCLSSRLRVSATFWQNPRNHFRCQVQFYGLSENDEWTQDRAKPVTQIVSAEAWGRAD
Put plainly: ELISA. On the technique in general: In an ELISA, binding on a coated surface is turned into a signal by an enzyme label.
For the molecule B1, the binding result was “no binding”.

Turning to B2, the binding result is reported as “no binding”.

As for B3, the binding result is reported as “no binding”.

With B4, the binding result is on record as “no binding”.

With B5, the binding result is “no binding”.

As for B6, the binding result is on record as “no binding”.

As to B7, the binding result was “no binding”.

Consider B8, for which the binding result is “no binding”.
